These results are taken from patent US6420345.

One may read the Ki as the dissociation constant of the complex between target and ligand, obtained from inhibition or displacement. Lower therefore signals higher affinity.

For assay [1], the target named is CDK4/cyclin D1 complex (UniProt P11802). Nature of the assay: cell-based or functional assay.
Assay [2] has as its target CDC2/cyclin B complex (UniProt P06493). Nature of the assay: cell-based or functional assay.
Assay [3] has as its target CDK2/cyclin E complex (UniProt P24941). Nature of the assay: cell-based or functional assay.
Assay [4] has as its target CDK2/cyclin A complex (UniProt P24941). As to the kind of experiment: cell-based or functional assay.
The target in assay [5] is CDK4/cyclin D1 complex (UniProt P11802). Nature of the assay: in vitro kinase inhibition assay (32P incorporation into GST-Rb).

Sequence of CDK4/cyclin D1 complex (P11802 whole entry, chain 1 of 2): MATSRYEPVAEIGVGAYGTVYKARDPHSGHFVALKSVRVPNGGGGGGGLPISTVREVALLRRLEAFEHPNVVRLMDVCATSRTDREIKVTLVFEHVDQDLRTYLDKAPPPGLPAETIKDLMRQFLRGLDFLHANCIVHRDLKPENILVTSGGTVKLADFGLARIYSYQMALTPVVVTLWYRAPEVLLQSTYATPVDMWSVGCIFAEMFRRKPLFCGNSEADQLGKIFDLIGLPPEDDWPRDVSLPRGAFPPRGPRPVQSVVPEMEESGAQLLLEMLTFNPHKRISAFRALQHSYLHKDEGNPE
Sequence of CDK4/cyclin D1 complex (P24385 whole entry, chain 2 of 2, further chain): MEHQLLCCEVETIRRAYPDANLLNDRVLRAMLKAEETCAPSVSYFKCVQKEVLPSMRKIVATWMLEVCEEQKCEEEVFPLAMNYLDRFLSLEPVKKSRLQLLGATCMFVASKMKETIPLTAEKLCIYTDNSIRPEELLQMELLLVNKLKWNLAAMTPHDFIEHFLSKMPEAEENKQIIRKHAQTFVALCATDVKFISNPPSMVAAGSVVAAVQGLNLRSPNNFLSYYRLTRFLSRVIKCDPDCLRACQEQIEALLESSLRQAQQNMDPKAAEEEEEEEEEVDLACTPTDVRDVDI
Sequence of CDC2/cyclin B complex (P06493 whole entry, chain 1 of 2): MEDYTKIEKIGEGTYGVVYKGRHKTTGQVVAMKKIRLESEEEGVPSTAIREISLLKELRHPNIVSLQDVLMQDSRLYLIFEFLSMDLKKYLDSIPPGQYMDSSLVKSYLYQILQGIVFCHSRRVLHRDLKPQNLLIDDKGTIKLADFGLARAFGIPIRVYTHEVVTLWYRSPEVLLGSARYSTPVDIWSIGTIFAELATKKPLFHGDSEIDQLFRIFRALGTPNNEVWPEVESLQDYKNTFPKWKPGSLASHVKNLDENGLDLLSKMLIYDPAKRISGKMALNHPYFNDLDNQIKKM
Sequence of CDC2/cyclin B complex (P14635 whole entry, chain 2 of 2, further chain): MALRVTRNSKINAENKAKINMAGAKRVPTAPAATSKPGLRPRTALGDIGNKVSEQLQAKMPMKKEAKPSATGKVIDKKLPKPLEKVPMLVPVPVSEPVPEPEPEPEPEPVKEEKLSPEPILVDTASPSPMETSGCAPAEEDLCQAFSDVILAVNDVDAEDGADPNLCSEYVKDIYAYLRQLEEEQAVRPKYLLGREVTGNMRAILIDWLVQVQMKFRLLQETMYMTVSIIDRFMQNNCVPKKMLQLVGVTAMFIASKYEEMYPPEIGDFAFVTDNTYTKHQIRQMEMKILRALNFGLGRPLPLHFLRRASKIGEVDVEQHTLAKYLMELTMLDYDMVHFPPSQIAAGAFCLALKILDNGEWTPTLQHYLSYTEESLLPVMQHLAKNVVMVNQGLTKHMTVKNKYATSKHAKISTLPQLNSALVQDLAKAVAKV

“human p27 (full length, 6xHis and HA tagged) (from UniProt P46527 1-198)”: the IC50, in vitro kinase assay in assay [1] was determined as 63 nM; in assay [2], 20 nM.
For p27-p16 fusion protein, the IC50, in vitro kinase assay in assay [3] was found to be 30 nM; in assay [1], 25 nM; in assay [2], 15 nM; in assay [4], 25 nM. The substance also registered a Ki in assay [5] of 23 nM.
